From US20140134183A1 (CELL MEDICA SWITZERLAND, published 2014)
Like-named read-outs stand apart in the source and are kept apart here.

Columns and labels:
Assay in all cases: cell-based or functional assay
[1] = target: T1, recombinant human IL-1 beta (human, UniProt P01584 117-269)
[2] = target: T1, recombinant human IL-1 beta; remark: listed apart in the source
[3] = target: T1, recombinant human IL-1 beta; remark: listed apart in the source
[4] = target: T1, recombinant human IL-1 beta; remark: listed apart in the source

B1: DLX2528 (scFv)
scFv: EIVMTQSPSTLSASVGDRVTITCQASQSIGNWLAWYQQKPGKAPKLLIYQASNLASGVPSRFSGSGSGTDFTLTISSLQPDDFATYYCQNAGGATTIAFGQGTKLTVLGGGGGSGGGGSGGGGSGGGGSEVQLVESGGGLVQPGGSLRLSCTASGFSLSSAAMAWVRQAPGKGLEWVGIIYDSASTYYASWAKGRFTISRDTSKNTVYLQMNSLRAEDTAVYYCARERAIFSGDFVLWGQGTLVTVSS
- IC50 of IL-1 beta-induced IL-6 release from human dermal fibroblasts [1]: 0.008 nM

B2: DLX2467 (scFv)
scFv: EIVMTQSPSTLSASVGDRVIITCQASQSIHNWLSWYQQKPGKAPKLLIYRASNLASGVPSRFSGSGSGAEFTLTISSLQPDDFATYYCQNTGGGSSIAFGQGTKLTVLGGGGGSGGGGSGGGGSGGGGSEVQLVESGGGLVQPGGSLRLSCTASGFSLSRAAMAWVRQAPGKGLEWVGIIYDSASTYYASWAKGRFTISRDTSKNTVYLQMNSLRAEDTAVYYCARERMIFSGDFVLWGQGTLVTVSS
- IC50 of IL-1 beta-induced IL-6 release from human dermal fibroblasts [2]: 0.025 nM

B3: DLX2475 (scFv)
scFv: EIVMTQSPSTLSASVGDRVIITCQASQSIDKWLSWYQQKPGKAPKLLIYQASTLASGVPSRFSGSGSGAEFTLTISSLQPDDFATYYCQNTGGGVHIAFGQGTKLTVLGGGGGSGGGGSGGGGSGGGGSEVQLVESGGGLVQPGGSLRLSCTASGFSLSSYAMAWVRQAPGKGLEWVGIIYDSASTYYASWAKGRFTISRDTSKNTVYLQMNSLRAEDTAVYYCARERAIFSGDFKLWGQGTLVTVSS
- IC50 of IL-1 beta-induced IL-6 release from human dermal fibroblasts [2]: 0.2 nM

B4: DLX2476 (scFv)
scFv: EIVMTQSPSTLSASVGDRVIITCQASQSISSWLSWYQQKPGKAPKLLIYRASTLASGVPSRFSGSGSGAEFTLTISSLQPDDFATYYCQNTGGGVSIAFGQGTKLTVLGGGGGSGGGGSGGGGSGGGGSEVQLVESGGGLVQPGGSLRLSCTASGFSLSSAAMAWVRQAPGKGLEWVGIIYDSASTYYASWAKGRFTISRDTSKNTVYLQMNSLRAEDTAVYYCARERDIFSGDFVGWGQGTLVTVSS
- IC50 of IL-1 beta-induced IL-6 release from human dermal fibroblasts [2]: 0.1 nM

B5: DLX2480 (scFv)
scFv: EIVMTQSPSTLSASVGDRVIITCQASQSIDNWLSWYQQKPGKAPKLLIYRASTLASGVPSRFSGSGSGAEFTLTISSLQPDDFATYYCQNTGGGINIAFGQGTKLTVLGGGGGSGGGGSGGGGSGGGGSEVQLVESGGGLVQPGGSLRLSCTASGFSLSDAAMAWVRQAPGKGLEWVGIIYDSASTYYASWAKGRFTISRDTSKNTVYLQMNSLRAEDTAVYYCARERQIFSGDFVLWGQGTLVTVSS
- IC50 of IL-1 beta-induced IL-6 release from human dermal fibroblasts [2]: 0.005 nM

B6: DLX2545 (scFv)
scFv: EIVMTQSPSTLSASVGDRVIITCQASQSIDNWLSWYQQKPGKAPKLLIYRASTLASGVPSRFSGSGSGAEFTLTISSLQPDDFATYYCQNTGGGVSIAFGQGTKLTVLGGGGGSGGGGSGGGGSGGGGSEVQLVESGGGLVQPGGSLRLSCTASGFSLSSAAMAWVRQAPGKGLEWIGIIYDSASTYYASWAKGRFTISRDTSKNTLYLQMNSLRAEDTAVYFCARERNIFSGDMVLWGQGTTVTVSS
- IC50 of IL-1 beta-induced IL-6 release from human dermal fibroblasts [1]: 0.007 nM

B7: DLX2468 (scFv)
scFv: EIVMTQSPSTLSASVGDRVIITCQASQSIGNYLSWYQQKPGKAPKLLIYRASTLASGVPSRFSGSGSGAEFTLTISSLQPDDFATYYCQNAGGGTSIAFGQGTKLTVLGGGGGSGGGGSGGGGSGGGGSEVQLVESGGGLVQPGGSLRLSCTASGFSLSSSAMAWVRQAPGKGLEWVGIIYDSASTYYASWAKGRFTISRDTSKNTVYLQMNSLRAEDTAVYYCARERNIFSGDMVLWGQGTLVTVSS
- IC50 of IL-1 beta-induced IL-6 release from human dermal fibroblasts [2]: 0.015 nM

B8: DLX2547 (scFv)
scFv: ADIVMTQSPSTLSASVGDRVTITCQASQSISSYLSWYQQKPGKAPKLLIYRASTLASGVPSRFSGSGSGAEFTLTISSLQPDDFATYYCQNTGGGINIAFGQGTKLEIKRGGGGSGGGGSGGGGSGGGGSEVQLVESGGGLVQPGGSLRLSCTASGFSLSSAAMAWVRQAPGKGLEWVGIIYDSASTYYASWAKGRFTISRDTSKNTVYLQMNSLRAEDTAVYYCARERAIFSGDFVLWGQGTLVTVSS
- IC50 of IL-1 beta-induced IL-6 release from human dermal fibroblasts [1]: 0.03 nM

B9: DLX2693 (scFv)
scFv: ADIVMTQSPSTLSASVGDRVTITCQASQSISSYLSWYQQKPGKAPKLLIYRASTLASGVPSRFSGSGSGAEFTLTISSLQPDDFATYYCQNTGGGINIAFGQGTKLEIKRGGGGSGGGGSGGGGSGGGGSEVQLVESGGGNVQPGGSLRLSCTASGFSLSNSAMAWVRQAPGKGLEWVGIIYDSASTYYASWAKGRFTISRDNSKNTVYLQMNSLRAEDTATYYCARERAIFSGDFALWGQGTLVTVSS
- IC50 of IL-1 beta-induced IL-6 release from human dermal fibroblasts [3]: 0.0125 nM

B10: DLX2681 (scFv)
scFv: EIVMTQSPSTLSASVGDRVIITCRASQSIGNWLSWYQQKPGKAPKLLIYRASNLASGVPSRFSGSGSGAEFTLTISSLQPEDFATYYCQNTGGGINIAFGQGTKLTVLGGGGGSGGGGSGGGGSGGGGSEVQLVESGGGNVQPGGSLRLSCTASGFSLSNSAMAWVRQAPGKGLEWVGIIYDSASTYYASWAKGRFTISRDNSKNTVYLQMNSLRAEDTATYYCARERAIFSGDFALWGQGTLVTVSS
- IC50 of IL-1 beta-induced IL-6 release from human dermal fibroblasts [3]: 0.0006 nM

B11: canakinumab IgG (Novartis, ILARIS) (antibody, V domains shown)
VH: QVQLVESGGGVVQPGRSLRLSCAASGFTFSVYGMNWVRQAPGKGLEWVAIIWYDGDNQYYADSVKGRFTISRDNSKNTLYLQMNGLRAEDTAVYYCARDLRTGPFDYWGQGTLVTVSS
VL: EIVLTQSPDFQSVTPKEKVTITCRASQSIGSSLHWYQQKPDQSPKLLIKYASQSFSGVPSRFSGSGSGTDFTLTINSLEAEDAAAYYCHQSSSLPFTFGPGTKVDIKR
- IC50 of IL-1 beta-induced IL-6 release from human dermal fibroblasts [3]: 0.09 nM

B12: DLX2586 (scFv)
scFv: EIVMTQSPSTLSASVGDRVIITCQASQSIDNWLSWYQQKPGKAPKLLIYRASTLASGVPSRFSGSGSGAEFTLTISSLQPDDFATYYCQNTGGGVSIAFGQGTKLTVLGGGGGSGGGGSGGGGSGGGGSEVQLVESGGGLVQPGGSLRLSCTVSGFSLSSYAMSWVRQAPGKGLEWIGIIYDSASTYYASWAKGRFTISKDTSKNTVYLQMNSLRAEDTAVYFCARERQIFSGDMDGWGQGTLVTVSS
- IC50 of IL-1 beta-induced IL-6 release from human dermal fibroblasts [1]: 0.002 nM

B13: anti-human IL-1 beta monoclonal IgG antibody MAB201 (antibody, from another filing, V domains shown)
VH: QVTLKESGPGILKPSQTLSLTCSFSGFSLSTSGMGVGWIRQPSGKGLEWLAHIWWDGDESYNPSLKTRLTISKNTSRNQVFLKITTVDTVDTATYFCARNRYDPPWFVDWGQGTLVTVSS
VL: DIQMTQTTSSLSASLGDRVTISCRASQDISNYLSWYQQKPDGTVKLLIYYTSKLHSGVPSRFSGSGSGTDYFLTISNLEQEDIATYFCLQGKMLPWTFGGGTKLEIK
- IC50 of IL-1 beta-induced IL-6 release from human dermal fibroblasts [4]: 0.002 to 0.003 nM
